T1: MPP1, Q00013
T1 sequence (Q00013 66-162, limits assumed, looked up): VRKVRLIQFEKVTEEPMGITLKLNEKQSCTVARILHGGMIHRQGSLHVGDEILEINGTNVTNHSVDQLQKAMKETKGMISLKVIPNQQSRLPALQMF

T2: MLLT4, P55196
T2 sequence (P55196 1002-1103, limits assumed, looked up): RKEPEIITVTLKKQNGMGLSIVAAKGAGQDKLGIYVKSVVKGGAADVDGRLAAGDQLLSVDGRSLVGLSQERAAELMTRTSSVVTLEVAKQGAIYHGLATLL

T3: USH1C_2, Q9Y6N9
T3 sequence (Q9Y6N9 206-303, limits assumed, looked up): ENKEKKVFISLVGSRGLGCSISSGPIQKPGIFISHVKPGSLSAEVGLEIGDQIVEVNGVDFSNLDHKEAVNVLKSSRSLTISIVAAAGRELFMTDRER

T4: CNKSR1, Q969H4
T4 sequence (Q969H4 191-295, limits assumed, looked up): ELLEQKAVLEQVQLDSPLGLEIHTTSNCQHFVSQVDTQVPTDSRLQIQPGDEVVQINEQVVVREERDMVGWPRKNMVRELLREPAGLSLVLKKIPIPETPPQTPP

T5: LNX2_1, Q8N448
T5 sequence (Q8N448 228-328, limits assumed, looked up): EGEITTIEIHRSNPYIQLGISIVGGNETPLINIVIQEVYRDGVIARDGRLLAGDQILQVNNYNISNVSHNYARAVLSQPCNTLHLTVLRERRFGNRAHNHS

T6: RGS12, O14924
T6 sequence (O14924 17-108, limits assumed, looked up): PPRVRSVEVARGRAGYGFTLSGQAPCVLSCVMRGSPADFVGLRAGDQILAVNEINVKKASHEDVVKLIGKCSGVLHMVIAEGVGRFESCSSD

T7: MPDZ_6, O75970
T7 sequence (O75970 1003-1099, limits assumed, looked up): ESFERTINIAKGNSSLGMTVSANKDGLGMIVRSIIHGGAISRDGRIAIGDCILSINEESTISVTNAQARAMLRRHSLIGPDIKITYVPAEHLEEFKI

T8: PDZRN3_2, Q9UPQ7
T8 sequence (Q9UPQ7 414-513, limits assumed, looked up): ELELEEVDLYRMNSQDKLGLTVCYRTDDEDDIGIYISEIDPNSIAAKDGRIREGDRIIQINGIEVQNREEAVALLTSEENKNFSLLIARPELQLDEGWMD

T9: PTPN13_5, Q12923
T9 sequence (Q12923 1877-1975, limits assumed, looked up): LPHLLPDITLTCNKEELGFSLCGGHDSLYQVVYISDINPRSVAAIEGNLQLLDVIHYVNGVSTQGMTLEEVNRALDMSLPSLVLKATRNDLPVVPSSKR

T10: MPP5, Q8N3R9
T10 sequence (Q8N3R9 251-346, limits assumed, looked up): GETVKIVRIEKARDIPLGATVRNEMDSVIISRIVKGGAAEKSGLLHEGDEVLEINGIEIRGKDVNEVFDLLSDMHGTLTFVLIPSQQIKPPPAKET

T11: MAGI2_1, Q86UL8
T11 sequence (Q86UL8 12-111, limits assumed, looked up): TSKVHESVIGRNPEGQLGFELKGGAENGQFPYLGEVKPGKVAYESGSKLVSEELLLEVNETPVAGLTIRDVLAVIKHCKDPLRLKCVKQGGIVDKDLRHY

T12: PARD6G, Q9BYG4
T12 sequence (Q9BYG4 153-261, limits assumed, looked up): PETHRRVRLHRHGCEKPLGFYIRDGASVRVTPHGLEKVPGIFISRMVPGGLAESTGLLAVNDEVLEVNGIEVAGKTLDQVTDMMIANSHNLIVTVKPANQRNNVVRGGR


What was measured:
Test in all cases: holdup assay
Set-up in all cases: key: below the threshold = too weak to quantify, mostly under pKd 3.1 to 4
[1] = target: LMO7, Q8WWI1; settings: plain residues with an end cap or a label only (N-terminal biotin on a linker: (peg)3)
[2] = target: T1, MPP1, Q00013
[3] = target: T2, MLLT4, P55196
[4] = target: SDCBP_1, O00560
[5] = target: DLG2_1, Q15700
[6] = target: T3, USH1C_2, Q9Y6N9
[7] = target: T4, CNKSR1, Q969H4; settings: plain residues with an end cap or a label only (N-terminal biotin on a linker: (peg)3)
[8] = target: MAST3, O60307
[9] = target: CARD14, Q9BXL6; settings: plain residues with an end cap or a label only (N-terminal biotin on a linker: (peg)3)
[10] = target: PDZRN4_2, Q6ZMN7
[11] = target: TJP1_1, Q07157
[12] = target: IL16_2, Q14005
[13] = target: T5, LNX2_1, Q8N448
[14] = target: MAGIX, Q9H6Y5
[15] = target: T6, RGS12, O14924; settings: plain residues with an end cap or a label only (N-terminal biotin on a linker: (peg)3)
[16] = target: GIPC3, Q8TF64; settings: plain residues with an end cap or a label only (N-terminal biotin on a linker: (peg)3)
[17] = target: T7, MPDZ_6, O75970
[18] = target: T8, PDZRN3_2, Q9UPQ7; settings: plain residues with an end cap or a label only (N-terminal biotin on a linker: (peg)3)
[19] = target: T9, PTPN13_5, Q12923
[20] = target: MAGI1_4, Q96QZ7; settings: plain residues with an end cap or a label only (N-terminal biotin on a linker: (peg)3)
[21] = target: NHERF2_1, Q15599
[22] = target: T10, MPP5, Q8N3R9
[23] = target: T11, MAGI2_1, Q86UL8
[24] = target: GRIP2_2, Q9C0E4; settings: plain residues with an end cap or a label only (N-terminal biotin on a linker: (peg)3)
[25] = target: T12, PARD6G, Q9BYG4; settings: plain residues with an end cap or a label only (N-terminal biotin on a linker: (peg)3)
[26] = plain residues with an end cap or a label only (N-terminal biotin on a linker: (peg)3)
[27] = modified: phospho on T at position -2 from the C-terminal residue

Sequence of CARD14, Q9BXL6 (Q9BXL6 558-663): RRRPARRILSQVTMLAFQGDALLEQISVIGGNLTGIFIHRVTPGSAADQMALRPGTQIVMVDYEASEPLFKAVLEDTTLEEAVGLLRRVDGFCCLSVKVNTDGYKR
Sequence of PDZRN4_2, Q6ZMN7 (Q6ZMN7 389-498): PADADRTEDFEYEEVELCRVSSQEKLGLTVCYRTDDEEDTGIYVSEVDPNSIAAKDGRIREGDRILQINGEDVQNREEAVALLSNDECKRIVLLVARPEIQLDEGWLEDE
Sequence of TJP1_1, Q07157 (Q07157 18-120): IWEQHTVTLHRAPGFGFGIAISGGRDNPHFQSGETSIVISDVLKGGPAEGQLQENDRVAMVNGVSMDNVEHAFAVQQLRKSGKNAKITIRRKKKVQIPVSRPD
Sequence of MAGIX, Q9H6Y5 (Q9H6Y5 118-211): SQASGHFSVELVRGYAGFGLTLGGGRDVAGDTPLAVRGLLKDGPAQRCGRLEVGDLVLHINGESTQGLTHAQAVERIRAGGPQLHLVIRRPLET
Sequence of NHERF2_1, Q15599 (Q15599 9-91): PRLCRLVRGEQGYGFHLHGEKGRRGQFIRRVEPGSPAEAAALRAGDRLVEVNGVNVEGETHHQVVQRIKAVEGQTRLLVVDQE
Sequence of SDCBP_1, O00560 (O00560 111-198): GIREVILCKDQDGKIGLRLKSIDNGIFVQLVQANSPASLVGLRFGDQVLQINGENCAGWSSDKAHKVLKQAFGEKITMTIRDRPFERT
Sequence of MAST3, O60307 (O60307 945-1048): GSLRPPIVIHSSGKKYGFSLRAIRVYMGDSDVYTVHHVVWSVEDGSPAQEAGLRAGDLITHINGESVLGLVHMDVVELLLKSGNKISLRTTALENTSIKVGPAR
Sequence of IL16_2, Q14005 (Q14005 350-450): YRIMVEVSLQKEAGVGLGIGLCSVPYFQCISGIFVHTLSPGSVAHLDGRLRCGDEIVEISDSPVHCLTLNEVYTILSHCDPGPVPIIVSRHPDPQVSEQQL
Sequence of MAGI1_4, Q96QZ7 (Q96QZ7 other isoform, or with tags, fused parts or gaps): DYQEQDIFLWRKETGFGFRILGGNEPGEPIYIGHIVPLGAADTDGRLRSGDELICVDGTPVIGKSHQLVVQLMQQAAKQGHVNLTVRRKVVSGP
Sequence of LMO7, Q8WWI1 (Q8WWI1 1037-1138): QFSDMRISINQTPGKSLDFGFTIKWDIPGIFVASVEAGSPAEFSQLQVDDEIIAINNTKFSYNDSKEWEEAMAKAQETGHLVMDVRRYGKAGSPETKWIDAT
Sequence of GIPC3, Q8TF64 (Q8TF64 107-202): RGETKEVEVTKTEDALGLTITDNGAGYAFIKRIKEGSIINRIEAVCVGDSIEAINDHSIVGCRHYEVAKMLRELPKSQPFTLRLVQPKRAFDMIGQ
Sequence of GRIP2_2, Q9C0E4 (Q9C0E4 137-245): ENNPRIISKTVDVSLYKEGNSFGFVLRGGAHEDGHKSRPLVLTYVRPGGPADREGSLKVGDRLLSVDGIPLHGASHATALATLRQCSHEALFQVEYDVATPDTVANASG

Row | Binder | pKd [2, 26] | pKd [3, 26] | pKd [4, 26] | pKd [5, 26] | pKd [6, 26] | pKd [7] | pKd [8, 26] | pKd [9] | pKd [10, 26] | pKd [11, 26] | pKd [12, 26] | pKd [13, 26] | pKd [14, 26] | pKd [15] | pKd [17, 26] | pKd [18] | pKd [19, 26] | pKd [21, 26] | pKd [22, 26] | pKd [23, 26] | also measured
1 | QQSMSSADSTQA [SARS-Cov2-N, P0DTC9] | below the threshold | below the threshold | below the threshold | below the threshold | below the threshold | below the threshold | below the threshold | below the threshold | below the threshold | below the threshold | below the threshold | below the threshold | below the threshold | below the threshold | below the threshold | below the threshold | below the threshold | below the threshold | below the threshold | below the threshold | pKd [1]: below the threshold; pKd [16]: below the threshold; pKd [20]: below the threshold; pKd [24]: below the threshold; pKd [25]: below the threshold
2 | SSRTRRETQL [HPV16-E6_-2P, P03126] |  |  |  |  |  |  |  |  |  |  |  |  |  |  |  |  |  |  |  |  | pKd [2, 27]: below the threshold; pKd [3, 27]: below the threshold; pKd [4, 27]: below the threshold; pKd [5, 27]: below the threshold; pKd [6, 27]: 4.45; pKd [8, 27]: below the threshold; pKd [10, 27]: 4.26; pKd [11, 27]: below the threshold; pKd [12, 27]: below the threshold; pKd [13, 27]: below the threshold; pKd [14, 27]: below the threshold; pKd [17, 27]: below the threshold; pKd [19, 27]: below the threshold; pKd [21, 27]: below the threshold; pKd [22, 27]: below the threshold; pKd [23, 27]: below the threshold
3 | RYEDTTLVEDTVL [WNV-NS5, Q9Q6P4] | below the threshold | below the threshold | below the threshold | 4.28 | below the threshold | below the threshold | below the threshold | below the threshold | below the threshold | below the threshold | below the threshold | below the threshold | below the threshold | below the threshold | 3.94 | below the threshold | below the threshold | 4.19 | below the threshold | below the threshold | pKd [1]: below the threshold; pKd [25]: below the threshold
4 | RRRRSQSRESQC [HBV-HBc, P03193] | below the threshold | below the threshold | below the threshold | 4.51 | 4.09 | 3.9 | below the threshold | below the threshold | below the threshold | below the threshold | below the threshold | below the threshold | below the threshold | below the threshold | below the threshold | below the threshold | below the threshold | below the threshold | below the threshold | below the threshold | pKd [16]: below the threshold; pKd [20]: below the threshold; pKd [24]: below the threshold; pKd [25]: below the threshold

Reference: PMC9482650, “Quantitative fragmentomics allow affinity mapping of interactomes” (Nature Communications, 2022)
